Biological target: T1, TaB3-2A1-GST (Triticum aestivum, UniProt A0A3B6AVE6 1-220)
T1 sequence: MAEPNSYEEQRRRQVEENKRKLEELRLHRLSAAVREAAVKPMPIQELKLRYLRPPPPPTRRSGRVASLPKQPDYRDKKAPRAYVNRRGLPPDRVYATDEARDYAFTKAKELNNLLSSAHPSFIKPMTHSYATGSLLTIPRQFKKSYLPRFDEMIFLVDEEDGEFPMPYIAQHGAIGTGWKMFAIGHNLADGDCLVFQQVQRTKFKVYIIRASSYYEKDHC
Assay: EMSA

B1: CCRM1-1 probe (dsDNA)
DNA 1: CTTTTGTGTTGGCAAACTGCGCTTTTCCAACCGATTTTGTTCTTCTCGCGCTTTCTTCTTAGGCTAAACAAACCTCACCGTGCACGCAGCCATGGTCCTGAACCTTCA
DNA 2: TGAAGGTTCAGGACCATGGCTGCGTGCACGGTGAGGTTTGTTTAGCCTAAGAAGAAAGCGCGAGAAGAACAAAATCGGTTGGAAAAGCGCAGTTTGCCAACACAAAAG
binding result: binds

From PMC10502752
